Earlier results on 4 substances are cited in publication PMC9147092.

Read-outs that look alike come from different tables or passages of the source.

Series [1] addresses BiP (Homo sapiens) (UniProt P11021).
The target is the same in series [2]. The source holds these as a separate data set.
For another series, the target named is ERdj2 (Homo sapiens) (UniProt Q9UGP8).
Series [3] concerns the target BiP (Homo sapiens) (UniProt P11021). The source holds these as a separate data set.

Chain of UniProt P11021 (P11021 19-654): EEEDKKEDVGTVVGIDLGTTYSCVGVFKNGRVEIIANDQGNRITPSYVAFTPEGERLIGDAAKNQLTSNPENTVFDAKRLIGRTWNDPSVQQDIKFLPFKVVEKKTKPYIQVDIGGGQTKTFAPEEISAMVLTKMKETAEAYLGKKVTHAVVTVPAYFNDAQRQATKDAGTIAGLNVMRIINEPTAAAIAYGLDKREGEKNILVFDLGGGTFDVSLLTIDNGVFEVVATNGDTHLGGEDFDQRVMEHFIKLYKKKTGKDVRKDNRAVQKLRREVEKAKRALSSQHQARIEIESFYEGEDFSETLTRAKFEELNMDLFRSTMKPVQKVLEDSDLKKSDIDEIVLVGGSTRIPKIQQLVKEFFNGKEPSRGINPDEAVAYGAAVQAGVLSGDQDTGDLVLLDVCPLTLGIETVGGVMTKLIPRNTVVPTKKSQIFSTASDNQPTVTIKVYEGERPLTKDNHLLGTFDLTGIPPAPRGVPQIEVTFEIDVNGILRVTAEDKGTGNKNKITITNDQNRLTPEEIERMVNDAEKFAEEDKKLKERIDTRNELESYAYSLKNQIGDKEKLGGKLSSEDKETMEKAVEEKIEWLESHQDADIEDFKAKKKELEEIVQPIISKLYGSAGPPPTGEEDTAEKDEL
Chain of UniProt Q9UGP8 (Q9UGP8 whole entry): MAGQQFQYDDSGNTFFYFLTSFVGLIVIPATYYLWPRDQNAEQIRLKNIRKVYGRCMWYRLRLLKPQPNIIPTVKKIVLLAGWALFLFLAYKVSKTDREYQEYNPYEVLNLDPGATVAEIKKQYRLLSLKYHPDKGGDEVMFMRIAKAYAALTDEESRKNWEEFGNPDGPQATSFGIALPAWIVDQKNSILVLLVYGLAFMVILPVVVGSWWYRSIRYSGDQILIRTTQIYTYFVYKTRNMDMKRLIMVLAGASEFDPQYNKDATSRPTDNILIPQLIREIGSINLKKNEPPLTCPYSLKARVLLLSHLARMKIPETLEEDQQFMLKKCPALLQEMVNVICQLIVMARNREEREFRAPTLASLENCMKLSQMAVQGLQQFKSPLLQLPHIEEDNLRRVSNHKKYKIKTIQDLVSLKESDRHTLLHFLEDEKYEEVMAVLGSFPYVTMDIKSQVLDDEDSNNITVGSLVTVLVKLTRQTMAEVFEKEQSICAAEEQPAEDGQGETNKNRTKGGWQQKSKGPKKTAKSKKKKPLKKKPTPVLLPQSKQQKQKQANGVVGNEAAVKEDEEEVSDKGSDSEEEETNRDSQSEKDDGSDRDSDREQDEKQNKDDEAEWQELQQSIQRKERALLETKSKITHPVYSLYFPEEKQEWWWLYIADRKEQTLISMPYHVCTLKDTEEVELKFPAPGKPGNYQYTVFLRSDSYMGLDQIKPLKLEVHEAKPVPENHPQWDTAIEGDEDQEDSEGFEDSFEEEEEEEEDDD

Consider ERdj1 (from UniProt Q96KC8), for which, in the series with BiP (Homo sapiens) [1], the Kd was 570 nM.

On to ERdj6 (from UniProt Q13217), for which the Kd with BiP (Homo sapiens) [2] is 5000 nM.

Turning to Sec62 (from UniProt Q99442), the Kd with ERdj2 (Homo sapiens) was 5 nM.

Turning to “PERK luminal domain (from UniProt Q9NZJ5)”, in the series with BiP (Homo sapiens) [3], the equilibrium dissociation constant (Kd) is 830 nM.
